Patent publication US20240301085A1

Legend:
[1] = target: monkey GPC3-His protein (monkey); assay: ELISA, coated monkey GPC3-His, antibody 100 nM
[2] = target: monkey GPC3-His protein (monkey); assay: ELISA, coated monkey GPC3-His, antibody 0.01 nM
[3] = target: monkey GPC3-His protein (monkey); assay: ELISA, coated monkey GPC3-His, antibody 0.0001 nM
[4] = target: monkey GPC3-His protein (monkey); assay: ELISA, coated monkey GPC3-His, antibody 0.0001 nM; remark: listed apart in the source
[5] = target: monkey GPC3, full length, on HEK293T cells (monkey); assay: FACS on HEK293T-monkey GPC3 cells
[6] = target: monkey GPC3-His protein (monkey); assay: ELISA, coated monkey GPC3-His, antibody 10 nM
[7] = target: Polypeptide GC3pep of human GPC3 (Ala524-Lys563) (human); assay: ELISA, coated GC3pep, antibody 1 nM
Chain of Polypeptide GC3pep of human GPC3 (Ala524-Lys563) (human) (peptide, as listed by the source): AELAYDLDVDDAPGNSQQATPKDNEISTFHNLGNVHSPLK

[8] = target: human GPC3-His protein (human) (UniProt P51654); assay: ELISA, coated human GPC3-His, antibody 100 nM
[9] = target: human GPC3-His protein (human) (UniProt P51654); assay: ELISA, coated human GPC3-His, antibody 0.01 nM
[10] = target: human GPC3-His protein (human) (UniProt P51654); assay: ELISA, coated human GPC3-His, antibody 0.0001 nM
[11] = target: human GPC3, full length, on cells (human) (UniProt P51654); assay: FACS on HepG2 cells
[12] = target: murine GPC3-His protein (murine) (UniProt Q8CFZ4); assay: ELISA, coated murine GPC3-His, antibody 10 nM
Chain of UniProt Q8CFZ4 (Q8CFZ4 25-558 limits assumed): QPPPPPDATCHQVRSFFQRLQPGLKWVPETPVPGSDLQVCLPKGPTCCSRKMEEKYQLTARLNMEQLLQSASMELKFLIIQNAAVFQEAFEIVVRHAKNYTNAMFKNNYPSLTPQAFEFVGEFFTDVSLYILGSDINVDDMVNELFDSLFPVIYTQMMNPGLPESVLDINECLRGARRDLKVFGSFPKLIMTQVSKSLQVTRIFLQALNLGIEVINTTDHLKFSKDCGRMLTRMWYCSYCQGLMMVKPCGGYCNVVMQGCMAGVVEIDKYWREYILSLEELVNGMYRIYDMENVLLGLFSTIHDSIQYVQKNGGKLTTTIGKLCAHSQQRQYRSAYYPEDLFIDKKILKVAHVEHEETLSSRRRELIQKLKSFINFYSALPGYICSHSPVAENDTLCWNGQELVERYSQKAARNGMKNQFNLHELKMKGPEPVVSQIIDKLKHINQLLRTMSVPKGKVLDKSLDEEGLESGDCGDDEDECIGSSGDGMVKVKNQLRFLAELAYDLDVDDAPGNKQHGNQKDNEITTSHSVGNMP

[13] = target: human GPC3-His protein (human) (UniProt P51654); assay: ELISA, coated human GPC3-His, antibody 100 nM; remark: listed apart in the source
[14] = target: human GPC3, full length, on cells (human) (UniProt P51654); assay: FACS on HepG2 cells, control in the row of Y035
[15] = target: monkey GPC3-His protein (monkey); assay: ELISA, coated monkey GPC3-His, antibody 0.1 nM
[16] = target: monkey GPC3-His protein (monkey); assay: ELISA, coated monkey GPC3-His, antibody 100 nM; remark: listed apart in the source
[17] = target: murine GPC3-His protein (murine) (UniProt Q8CFZ4); assay: ELISA, coated murine GPC3-His, antibody 100 nM
[18] = target: monkey GPC3-His protein (monkey); assay: ELISA, coated monkey GPC3-His, antibody 0.01 nM; remark: listed apart in the source
[19] = target: monkey GPC3-His protein (monkey); assay: ELISA, coated monkey GPC3-His, antibody 0.1 nM; remark: listed apart in the source
[20] = target: murine GPC3-His protein (murine) (UniProt Q8CFZ4); assay: ELISA, coated murine GPC3-His, antibody 1 nM
[21] = target: murine GPC3-His protein (murine) (UniProt Q8CFZ4); assay: ELISA, coated murine GPC3-His, antibody 100 nM; remark: listed apart in the source
[22] = target: human GPC3-His protein (human) (UniProt P51654); assay: ELISA, coated human GPC3-His, antibody 0.1 nM
[23] = target: human GPC3, full length, on cells (human) (UniProt P51654); assay: FACS on CHO-K1 clone CHOK1-hGPC3.2B5
[24] = target: human GPC3, full length, on cells (human) (UniProt P51654); assay: FACS on HepG2 cells, control in the row of T2-23
[25] = target: murine GPC3-His protein (murine) (UniProt Q8CFZ4); assay: ELISA, coated murine GPC3-His, antibody 0.0001 nM
[26] = target: murine GPC3-His protein (murine) (UniProt Q8CFZ4); assay: ELISA, coated murine GPC3-His, antibody 0.001 nM
[27] = target: monkey GPC3-His protein (monkey); assay: ELISA, coated monkey GPC3-His, antibody 0.001 nM
[28] = target: human GPC3-His protein (human) (UniProt P51654); assay: ELISA, coated human GPC3-His, antibody 0.001 nM
[29] = target: Polypeptide GC3pep of human GPC3 (Ala524-Lys563) (human); assay: ELISA, coated GC3pep, antibody 0.01 nM
[30] = target: monkey GPC3-His protein (monkey); assay: ELISA, coated monkey GPC3-His, antibody 0.001 nM; remark: listed apart in the source
[31] = target: human GPC3-His protein (human) (UniProt P51654); assay: ELISA, coated human GPC3-His, antibody 1 nM
[32] = target: human GPC3, full length, on cells (human) (UniProt P51654); assay: FACS on CHO-K1 clone CHOK1-hGPC3.3E9
[33] = target: human GPC3-His protein (human) (UniProt P51654); assay: ELISA, coated human GPC3-His, antibody 1 nM; remark: listed apart in the source
[34] = target: Polypeptide GC3pep of human GPC3 (Ala524-Lys563) (human); assay: ELISA, coated GC3pep, antibody 10 nM
[35] = target: Polypeptide GC3pep of human GPC3 (Ala524-Lys563) (human); assay: ELISA, coated GC3pep, antibody 0.001 nM
[36] = target: murine GPC3-His protein (murine) (UniProt Q8CFZ4); assay: ELISA, coated murine GPC3-His, antibody 0.001 nM; remark: listed apart in the source
[37] = target: human GPC3-His protein (human) (UniProt P51654); assay: ELISA, coated human GPC3-His, antibody 0.0001 nM; remark: listed apart in the source
[38] = target: Polypeptide GC3pep of human GPC3 (Ala524-Lys563) (human); assay: ELISA, coated GC3pep, antibody 0.0001 nM
[39] = target: human GPC3-His protein (human) (UniProt P51654); assay: ELISA, coated human GPC3-His, antibody 0.1 nM; remark: listed apart in the source
[40] = target: Polypeptide GC3pep of human GPC3 (Ala524-Lys563) (human); assay: ELISA, coated GC3pep, antibody 100 nM
[41] = target: Polypeptide GC3pep of human GPC3 (Ala524-Lys563) (human); assay: ELISA, coated GC3pep, antibody 100 nM; remark: listed apart in the source
[42] = target: murine GPC3-His protein (murine) (UniProt Q8CFZ4); assay: ELISA, coated murine GPC3-His, antibody 0.0001 nM; remark: listed apart in the source
[43] = target: monkey GPC3-His protein (monkey); assay: ELISA, coated monkey GPC3-His, antibody 1 nM
[44] = target: human GPC3-His protein (human) (UniProt P51654); assay: ELISA, coated human GPC3-His, antibody 0.01 nM; remark: listed apart in the source
[45] = target: human GPC3-His protein (human) (UniProt P51654); assay: ELISA, coated human GPC3-His, antibody 0.001 nM; remark: listed apart in the source
[46] = target: monkey GPC3-His protein (monkey); assay: ELISA, coated monkey GPC3-His, antibody 1 nM; remark: listed apart in the source
[47] = target: murine GPC3-His protein (murine) (UniProt Q8CFZ4); assay: ELISA, coated murine GPC3-His, antibody 0.1 nM
[48] = target: human GPC3, full length, on cells (human) (UniProt P51654); assay: FACS on CHO-K1-human GPC3 cells
[49] = target: murine GPC3-His protein (murine) (UniProt Q8CFZ4); assay: ELISA, coated murine GPC3-His, antibody 0.01 nM
[50] = target: murine GPC3-His protein (murine) (UniProt Q8CFZ4); assay: ELISA, coated murine GPC3-His, antibody 10 nM; remark: listed apart in the source
[51] = target: human GPC3-His protein (human) (UniProt P51654); assay: ELISA, coated human GPC3-His, antibody 10 nM
[52] = target: Polypeptide GC3pep of human GPC3 (Ala524-Lys563) (human); assay: ELISA, coated GC3pep, antibody 0.1 nM
[53] = target: murine GPC3-His protein (murine) (UniProt Q8CFZ4); assay: ELISA, coated murine GPC3-His, antibody 0.01 nM; remark: listed apart in the source
[54] = target: human GPC3-His protein (human) (UniProt P51654); assay: ELISA, coated human GPC3-His, antibody 10 nM; remark: listed apart in the source
[55] = target: human GPC3, full length, on cells (human) (UniProt P51654); assay: FACS on CHO-K1 clone CHOK1-hGPC3.1C3
[56] = target: monkey GPC3-His protein (monkey); assay: ELISA, coated monkey GPC3-His, antibody 10 nM; remark: listed apart in the source

human IgG1 subtype control (antibody)
OD450 [1]: 0.19
OD450 [2]: 0.05
OD450 [3]: 0.05
OD450 [4]: 0.048
Max MFI [5]: 95
OD450 [6]: 0.047
OD450 [7]: 0.04
OD450 [8]: 0.072
OD450 [9]: 0.048
OD450 [10]: 0.09
Max MFI [11]: 110
OD450 [12]: 0.055
OD450 [13]: 0.09
Mean fluorescence intensity of cells [14]: 137
OD450 [15]: 0.04
OD450 [16]: 0.056
OD450 [17]: 0.08
OD450 [18]: 0.044
OD450 [19]: 0.045
OD450 [20]: 0.05
OD450 [21]: 0.105
OD450 [22]: 0.05
Mean fluorescence intensity of cells [23]: 19.3
Mean fluorescence intensity of cells [24]: 137
OD450 [25]: 0.049
OD450 [26]: 0.05
OD450 [27]: 0.04
OD450 [28]: 0.048
OD450 [29]: 0.046
OD450 [30]: 0.044
OD450 [31]: 0.09
Mean fluorescence intensity of cells [32]: 19.3
OD450 [33]: 0.048
OD450 [34]: 0.04
OD450 [35]: 0.046
OD450 [36]: 0.051
OD450 [37]: 0.047
OD450 [38]: 0.06
OD450 [39]: 0.09
OD450 [40]: 0.06
OD450 [41]: 0.069
OD450 [42]: 0.05
OD450 [43]: 0.05
OD450 [44]: 0.1
OD450 [45]: 0.09
OD450 [46]: 0.044
OD450 [47]: 0.05
Max MFI [48]: 82
OD450 [49]: 0.052
OD450 [50]: 0.07
OD450 [51]: 0.05
OD450 [52]: 0.04
OD450 [53]: 0.05
OD450 [54]: 0.1
Mean fluorescence intensity of cells [55]: 19.3
OD450 [56]: 0.08
